For one experiment, the target named is nrgECD (UniProt Q02297). Nature of the experiment: Biacore SPR, immobilised nrgECD. On the technique in general: Surface plasmon resonance follows binding to a sensor surface in real time, without labels.
For a further experiment, the target named is nrgbx (UniProt Q02297). Nature of the experiment: cell-based or functional assay.
Another experiment concerns the target nrgEGF (UniProt Q02297). As to the kind of experiment: Biacore SPR.

Sequence of IGFBP3-Fc-ErbB4 (Fc fusion) (chain): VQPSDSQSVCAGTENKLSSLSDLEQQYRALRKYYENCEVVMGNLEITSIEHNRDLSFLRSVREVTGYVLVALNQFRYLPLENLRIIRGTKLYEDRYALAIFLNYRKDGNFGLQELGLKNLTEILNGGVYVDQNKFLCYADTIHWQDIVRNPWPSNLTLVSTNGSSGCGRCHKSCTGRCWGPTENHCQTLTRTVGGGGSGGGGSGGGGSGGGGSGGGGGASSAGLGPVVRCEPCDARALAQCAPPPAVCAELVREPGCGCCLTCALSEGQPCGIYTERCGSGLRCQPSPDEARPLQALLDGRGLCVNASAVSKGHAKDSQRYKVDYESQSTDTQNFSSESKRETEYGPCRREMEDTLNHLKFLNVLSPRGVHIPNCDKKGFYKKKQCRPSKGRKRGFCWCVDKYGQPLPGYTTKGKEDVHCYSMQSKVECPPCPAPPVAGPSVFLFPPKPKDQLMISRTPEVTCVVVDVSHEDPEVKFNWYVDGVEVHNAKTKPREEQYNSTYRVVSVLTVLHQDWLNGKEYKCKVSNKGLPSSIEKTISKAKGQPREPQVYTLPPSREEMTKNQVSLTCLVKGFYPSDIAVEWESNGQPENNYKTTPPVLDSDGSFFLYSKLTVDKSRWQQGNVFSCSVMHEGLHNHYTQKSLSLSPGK
Sequence of IGFBP3-Fc-VEGF-ErbB4 (Fc fusion) (chain): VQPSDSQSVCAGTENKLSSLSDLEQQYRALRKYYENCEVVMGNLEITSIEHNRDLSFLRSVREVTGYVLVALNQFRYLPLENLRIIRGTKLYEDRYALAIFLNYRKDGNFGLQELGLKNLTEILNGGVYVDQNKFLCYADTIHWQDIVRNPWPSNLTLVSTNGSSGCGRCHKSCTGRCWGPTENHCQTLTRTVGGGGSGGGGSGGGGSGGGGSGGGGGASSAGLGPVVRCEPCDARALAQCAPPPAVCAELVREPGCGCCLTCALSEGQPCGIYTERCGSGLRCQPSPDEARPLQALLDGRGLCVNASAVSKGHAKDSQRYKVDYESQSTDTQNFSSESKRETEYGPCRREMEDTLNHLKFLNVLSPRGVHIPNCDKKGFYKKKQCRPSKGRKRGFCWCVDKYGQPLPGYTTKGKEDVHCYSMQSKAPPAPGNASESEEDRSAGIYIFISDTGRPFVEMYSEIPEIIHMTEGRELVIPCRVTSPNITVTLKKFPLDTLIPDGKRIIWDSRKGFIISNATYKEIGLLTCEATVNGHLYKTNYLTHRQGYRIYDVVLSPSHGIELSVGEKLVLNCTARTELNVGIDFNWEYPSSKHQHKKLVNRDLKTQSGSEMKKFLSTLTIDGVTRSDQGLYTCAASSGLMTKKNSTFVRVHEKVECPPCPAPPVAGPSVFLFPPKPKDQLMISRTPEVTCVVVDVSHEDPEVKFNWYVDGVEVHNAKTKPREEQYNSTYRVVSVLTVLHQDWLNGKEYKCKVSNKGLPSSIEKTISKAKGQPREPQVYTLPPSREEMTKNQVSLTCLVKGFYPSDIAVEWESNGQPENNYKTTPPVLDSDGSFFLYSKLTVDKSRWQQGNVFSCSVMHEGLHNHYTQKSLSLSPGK
Sequence of IGFBP3-Fc-VEGF (Fc fusion) (chain): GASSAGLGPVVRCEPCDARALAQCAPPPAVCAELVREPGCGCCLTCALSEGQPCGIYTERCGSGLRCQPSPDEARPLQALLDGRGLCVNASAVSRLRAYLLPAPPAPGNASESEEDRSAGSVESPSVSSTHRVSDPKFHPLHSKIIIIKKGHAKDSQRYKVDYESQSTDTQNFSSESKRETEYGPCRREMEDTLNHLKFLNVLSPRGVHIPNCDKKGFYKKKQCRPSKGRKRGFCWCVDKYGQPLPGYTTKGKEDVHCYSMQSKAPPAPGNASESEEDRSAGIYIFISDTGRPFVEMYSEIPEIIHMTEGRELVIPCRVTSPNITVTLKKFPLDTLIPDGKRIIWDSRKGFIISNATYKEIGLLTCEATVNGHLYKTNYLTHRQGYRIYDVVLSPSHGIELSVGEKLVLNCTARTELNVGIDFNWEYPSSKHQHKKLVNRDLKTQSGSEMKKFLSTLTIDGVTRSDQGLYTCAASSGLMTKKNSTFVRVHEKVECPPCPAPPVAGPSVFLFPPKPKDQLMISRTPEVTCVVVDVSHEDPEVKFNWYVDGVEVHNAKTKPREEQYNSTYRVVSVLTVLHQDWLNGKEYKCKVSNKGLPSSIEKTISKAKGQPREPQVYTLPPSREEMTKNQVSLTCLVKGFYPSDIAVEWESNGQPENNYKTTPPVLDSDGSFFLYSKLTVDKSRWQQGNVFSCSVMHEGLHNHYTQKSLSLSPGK
Sequence of IGFBP3-Fc (Fc fusion) (chain): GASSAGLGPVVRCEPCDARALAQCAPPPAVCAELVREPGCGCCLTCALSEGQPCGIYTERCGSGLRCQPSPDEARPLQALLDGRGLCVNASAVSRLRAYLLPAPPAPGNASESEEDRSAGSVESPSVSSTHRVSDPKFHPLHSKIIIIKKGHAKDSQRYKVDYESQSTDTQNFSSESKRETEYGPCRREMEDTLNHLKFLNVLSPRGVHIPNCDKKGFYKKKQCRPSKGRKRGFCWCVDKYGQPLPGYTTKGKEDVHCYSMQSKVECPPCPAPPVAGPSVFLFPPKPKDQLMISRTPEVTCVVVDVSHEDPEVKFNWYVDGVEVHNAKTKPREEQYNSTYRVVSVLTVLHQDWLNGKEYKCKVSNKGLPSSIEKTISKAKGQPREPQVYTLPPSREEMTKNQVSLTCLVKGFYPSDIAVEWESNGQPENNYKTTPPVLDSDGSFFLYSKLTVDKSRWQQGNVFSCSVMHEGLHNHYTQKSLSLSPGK
Sequence of nrgbx (Q02297 other isoform, or with tags, fused parts or gaps limits assumed): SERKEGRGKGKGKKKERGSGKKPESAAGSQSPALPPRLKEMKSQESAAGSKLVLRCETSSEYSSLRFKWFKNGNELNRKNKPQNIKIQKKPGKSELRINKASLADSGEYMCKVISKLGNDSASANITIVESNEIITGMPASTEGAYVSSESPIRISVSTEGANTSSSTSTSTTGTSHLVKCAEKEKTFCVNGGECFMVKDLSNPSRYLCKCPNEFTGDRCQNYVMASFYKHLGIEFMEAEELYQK

A word on the Kd: it is the equilibrium constant for the complex coming apart. Low values mean a tighter complex, high ones a looser complex. Substance IGFBP3-Fc (Fc fusion) yielded a Kd in the experiment with nrgECD of 5.3 nM.

The substance IGFBP3-Fc-VEGF (Fc fusion) displayed a Kd in the experiment with nrgECD of 0.18 nM.

As to chimera erbB4-A (Fc fusion), in the experiment with nrgbx, the IC50 in inhibiting neuregulin-induced proliferation turned out to be 14 nM.

IGFBP3-Fc-VEGF-ErbB4 (Fc fusion): the values for the Kd with nrgECD and with nrgEGF were 0.00011 nM and 11 nM, respectively.

IGFBP3-Fc-ErbB4 (Fc fusion): the Kd with nrgECD was determined as 0.004 nM; with nrgEGF it was 6 nM.
